For series [1] the following is noted: mouse, in vivo.
Source text: Control (saline-injected) mice were euthanized early due to tumor ulceration, in compliance with IACUC policy. […] FIG. 30E, TUNEL staining and quantification in liver and kidney tissue obtained from treated mice. Micrographs obtained at 20× magnification (left set of panels) show fluorescently-stained nuclei in apoptotic cells (delineated areas are enlarged in micrographs to the right). Graph summarizes relative fluorescence intensities of each treated tissue (N>200 fields per treatment).
Fixed, sectioned tissues were processed by incubation in a dry 60° C. oven for 1 h followed by sequential submersion in xylenes for 4 min×5, then hydration in 100%, 95%, 90%, 80%, 70% ethanol for 3 min, 2 times each and final submersion in water. After Proteinase K (20 ug/ml in 10 mM Tris pH 7.8) incubation and rinsing in PBS, sections were treated for TUNEL staining following the manufacturer's instructions (XXX) and assessed by confocal fluorescence imaging. Here, 10 TUNEL images at different locations per tissue were acquired using a Leica confocal SPE microscope (20×, ex: 488 nm, and em: 530 nm). Central regions of each tissue were imaged to avoid fixation artifacts. Nuclear fluorescence intensities, reflective of DNA fragmentation, were measured and averaged using ImageJ.
Series [2] can be described thus: HerDox stability in storage, ultrafiltration. It counts as physicochemical. Particulars: 4° C., RT, or 37° C. over a 12 day period. Here is the method: FIG. 34A, HerDox stability in different storage conditions. HerDox was incubated at indicated times and temperatures was applied to a 10K mwco ultrafiltration membrane every other day, and retentate and filtrate A480 measured to determine relative Dox retention or release from complexes, respectively. […] FIG. 34B, Assessing stability in serum-containing media by ultrafiltration. HerDox immobilized on Ni-NTA beads (Qiagen Inc., Valencia. CA, USA) by incubation on ice for 2 h with agitation followed by free HerDox removal via bead pelleting/washing in HBS received 10% fetal bovine serum (FBS), to mimic cell culture conditions, and incubated at 37° C. with agitation for the indicated time-points. At each time-point, samples were pelleted and mean A480±SD (N=3) of supernatants (Released) and bead eluates (Retained) were measured. […] Relative Dox release or retention in serum is expressed as normalized to control (corresponding serum-lacking sample). […] Dox fluorescence (top panel) was visualized by UV excitation. […] Dox (1.6 nmoles) was added to serum coated wells and incubated for 30 min at 37° C. with agitation before supernatants were removed and the wells washed once with HBS before fluorescence spectra were measured for pre-incubation sample (Input), supernatant (Free) and wells (Serum-bound). Fluorescence spectra were obtained at Ex 485 nm/Em 520-750 nm with a 515 nm cutoff filter. […]

Series [3] in a line: Stability in blood, ultrafiltration. It counts as in vitro ADME. The settings on record: 1 h at 37° C. in mouse blood. The source says: FIG. 26A. Stability in blood. […] N=3. […] FIG. 26C. Assessing Dox retention in serum.
The nature of series [4]: Stability in complete cell culture media. It counts as in vitro ADME. Particulars: up to 24 h. Here is the method: FIG. 34A, HerDox stability in different storage conditions. HerDox was incubated at indicated times and temperatures was applied to a 10K mwco ultrafiltration membrane every other day, and retentate and filtrate A480 measured to determine relative Dox retention or release from complexes, respectively. […] FIG. 34B, Assessing stability in serum-containing media by ultrafiltration. HerDox immobilized on Ni-NTA beads (Qiagen Inc., Valencia. CA, USA) by incubation on ice for 2 h with agitation followed by free HerDox removal via bead pelleting/washing in HBS received 10% fetal bovine serum (FBS), to mimic cell culture conditions, and incubated at 37° C. with agitation for the indicated time-points. At each time-point, samples were pelleted and mean A480±SD (N=3) of supernatants (Released) and bead eluates (Retained) were measured. […] Relative Dox release or retention in serum is expressed as normalized to control (corresponding serum-lacking sample). […] Dox fluorescence (top panel) was visualized by UV excitation. […] Dox (1.6 nmoles) was added to serum coated wells and incubated for 30 min at 37° C. with agitation before supernatants were removed and the wells washed once with HBS before fluorescence spectra were measured for pre-incubation sample (Input), supernatant (Free) and wells (Serum-bound). Fluorescence spectra were obtained at Ex 485 nm/Em 520-750 nm with a 515 nm cutoff filter.

As for `COc1cccc2c1C(=O)c1c(O)c3c(c(O)c1C2=O)C[C@@](O)(C(=O)CO)C[C@@H]3O[C@H]1C[C@H](N)[C@H](O)[C@H](C)O1.Cl` [Dox, Doxorubicin-HCl, reference compound], in series [1], the “apoptosis in the kidney (TUNEL)” value is “Neither Dox nor HerDox showed substantial apoptosis” and the “apoptosis in the liver (TUNEL)” value was “marked apoptosis”.

B1: HerDox: self-assembled nanoparticle of oligonucleotide duplex, doxorubicin and HerPBK10 (conjugate)
chain: LPPRLKEMKSQESAAGSKLVLRCETSSEYSSLRFKWFKNGNELNRKNKPQNIKIQKKPGKSELRINKASLADSGEYMCKVISKLGNDSASANITIVESNEIITGMPASTEGAYVSSESPIRISVSTEGANTSSSTSTSTTGTSHLVKCAEKEKTFCVNGGECFMVKDLSNPSRYLCKCQPGFTGARCTENVPMKVQNQEKAEELYMRRAAMYEEGPPPSYESVVSAAPVAAALGSPFDAPLDPPFVPPRYLRPTGGRNSIRYSELAPLFDTTRVYLVDNKSTDVASLNYQNDHSNFLTTVIQNNDYSPGEASTQTINLDDRSHWGGDLKTILHTNMPNVNEFMFTNKFKARVMVSRLPTKDNQVELKYEWVEFTLPEGNYSETMTIDLMNNAIVEHYLKVGRQNGVLESDIGVKFDTRNFRLGFDPVTGLVMPGVYTNEAFHPDIILLPGCGVDFTHSRLSNLLGIRKRQPFQEGFRITYDDLEGGNIPALLDVDAYQASLKDDTEQGGGGAGGSNSSGSGAEENSNAAAAAMQPVEDMNDHAIRGDTFATRAEEKRAEAEAAAEAAAPAAQPEVEKPQKKPVIKPLTEDSKKRSYNLISNDSTFTQYRSWYLAYNYGDPQTGIRSWTLLCTPDVTCGSEQVYWSLPDMMQDPVTFRSTRQISNFPVVGAELLPVHSKSFYNDQAVYSQLIRQFTSLTHVFNRFPENQILARPPAPTITTVSENVPALTDHGTLPLRNSIGGVQRVTITDARRRTCPYVYKALGIVSPRVLSSRTFKKKKKKKKKK
As for B1, the “Dox release in storage” value in series [2] is on record as “no detectable Dox release”. Further, the “Dox release in blood (filtrate/retentate fluorescence)” value in series [3] is listed as “no detectable fluorescence in filtrates nor loss from retentates”. The “loss of Dox in complete cell culture media” value in series [4] is “no loss of Dox from the complex”.

(Values after patent US11795454B2, “Targeted delivery system” (Cedars-Sinai Medical Center, priority 2009, dated 2023).)
